How the values were obtained:
[1] = biological target: Globodera pallida Clade 1 glutathione synthetase Gpa-GSS1 (Globodera pallida); test: SEC; S200 analytical gel filtration column; purified proteins migrate between the 150 kDa and 75 kDa protein standards, at a mass consistent with a homodimer (50 kDa per subunit)
[2] = biological target: Solanum tuberosum glutathione synthetase St-GSS1 (Solanum tuberosum); test: as above
St-GSS1 = biological target: T1, St-GSS1 (Solanum tuberosum, UniProt M1CSC4); test: malachite green phosphate release from ATP; assay type: biochemical; settings: glycine, 20 mM MgCl2, 5 mM DTT, 100 mM HEPES pH 7.5, 30 °C
T1 construct: gene LOC102589405; His6-SUMO tag cleaved by 3C protease (pOPINS3C); E. coli SHuffle; homodimer, about 50 kDa per subunit
T1 sequence (M1CSC4 1-483): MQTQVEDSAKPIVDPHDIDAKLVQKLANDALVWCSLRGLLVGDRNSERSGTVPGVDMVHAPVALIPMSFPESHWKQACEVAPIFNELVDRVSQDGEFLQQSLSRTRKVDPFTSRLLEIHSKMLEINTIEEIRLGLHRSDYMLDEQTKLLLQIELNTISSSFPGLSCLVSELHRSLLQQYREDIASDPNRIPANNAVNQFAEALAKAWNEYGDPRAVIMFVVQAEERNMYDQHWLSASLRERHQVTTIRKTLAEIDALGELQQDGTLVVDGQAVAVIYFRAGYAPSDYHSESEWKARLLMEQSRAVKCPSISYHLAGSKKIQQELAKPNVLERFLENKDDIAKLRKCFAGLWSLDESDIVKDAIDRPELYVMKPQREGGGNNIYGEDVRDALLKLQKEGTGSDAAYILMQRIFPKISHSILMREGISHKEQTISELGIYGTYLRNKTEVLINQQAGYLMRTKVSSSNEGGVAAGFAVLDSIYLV

Gpa-GSS1 = biological target: T2, Gpa-GSS1 (Globodera pallida, UniProt A0A183BS86); test: malachite green phosphate release from ATP; assay type: biochemical; settings: glycine, 20 mM MgCl2, 5 mM DTT, 100 mM HEPES pH 7.5, 30 °C
T2 construct: full-length; His6-SUMO tag cleaved by 3C protease (pOPINS3C); E. coli SHuffle; homodimer, about 50 kDa per subunit

[3] = biological target: Globodera pallida Clade 3 GS-like effector Gpa-GSS17 (Globodera pallida); test: SEC; S200 analytical gel filtration column; purified proteins migrate between the 150 kDa and 75 kDa protein standards, at a mass consistent with a homodimer (50 kDa per subunit)
[4] = biological target: Globodera pallida Clade 2 glutathione synthetase Gpa-GSS5 (Globodera pallida); test: as above
[5] = biological target: Globodera pallida Clade 3 GS-like effector Gpa-GSS30 (Globodera pallida); test: as above
[6] = biological target: Globodera pallida Clade 3 GS-like effector Gpa-GSS22 (Globodera pallida); test: as above
[7] = biological target: Globodera pallida Clade 3 GS-like effector Gpa-GSS24 (Globodera pallida); test: as above
[8] = biological target: Globodera pallida Clade 3 GS-like effector Gpa-GSS12 (Globodera pallida); test: as above

Globodera pallida Clade 1 glutathione synthetase Gpa-GSS1 (enzyme)
stoichiometry N [1]: 2

Solanum tuberosum glutathione synthetase St-GSS1 (enzyme)
stoichiometry N [2]: 2

N[C@@H](CCC(=O)N[C@@H](CS)C(=O)O)C(=O)O [γ-EC]
Km (St-GSS1): The Km for γ-EC for canonical GS enzymes. | Km (Gpa-GSS1): The Km for γ-EC for canonical GS enzymes.

Globodera pallida Clade 3 GS-like effector Gpa-GSS17 (natural protein)
stoichiometry N [3]: 2

Globodera pallida Clade 2 glutathione synthetase Gpa-GSS5 (enzyme)
stoichiometry N [4]: 2

Globodera pallida Clade 3 GS-like effector Gpa-GSS30 (natural protein)
stoichiometry N [5]: 2

Globodera pallida Clade 3 GS-like effector Gpa-GSS22 (natural protein)
stoichiometry N [6]: 2

Globodera pallida Clade 3 GS-like effector Gpa-GSS24 (natural protein)
stoichiometry N [7]: 2

Globodera pallida Clade 3 GS-like effector Gpa-GSS12 (natural protein)
stoichiometry N [8]: 2

Reference: publication PMC5919673, “Effector gene birth in plant parasitic nematodes: Neofunctionalization of a housekeeping glutathione synthetase gene” (PLoS Genetics, 2018)
